B1: 3xFlag-UBL3 (wild-type ubiquitin-like 3/membrane-anchored Ub-fold protein) [not stated] / TUBB4A [human (endogenous in MDA-MB-231)] (parent)
chain 1: MSSNVPADMINLRLILVSGKTKEFLFSPNDSASDIAKHVYDNWPMDWEEEQVSSPNILRLIYQGRFLHGNVTLGALKLPFGKTTVMHLVARETLPEPNSQGQRNREKTGESNCCVIL
chain 2: MREIVHLQAGQCGNQIGAKFWEVISDEHGIDPTGTYHGDSDLQLERINVYYNEATGGNYVPRAVLVDLEPGTMDSVRSGPFGQIFRPDNFVFGQSGAGNNWAKGHYTEGAELVDAVLDVVRKEAESCDCLQGFQLTHSLGGGTGSGMGTLLISKIREEFPDRIMNTFSVVPSPKVSDTVVEPYNATLSVHQLVENTDETYCIDNEALYDICFRTLKLTTPTYGDLNHLVSATMSGVTTCLRFPGQLNADLRKLAVNMVPFPRLHFFMPGFAPLTSRGSQQYRALTVPELTQQMFDAKNMMAACDPRHGRYLTVAAVFRGRMSMKEVDEQMLSVQSKNSSYFVEWIPNNVKTAVCDIPPRGLKMAATFIGNSTAIQELFKRISEQFTAMFRRKAFLHWYTGEGMDEMEFTEAESNMNDLVSEYQQYQDATAEEGEFEEEAEEEVA
B2: 3xFlag-UBL3 (wild-type ubiquitin-like 3/membrane-anchored Ub-fold protein) [not stated] / ATXN10 [human (endogenous in MDA-MB-231)] (parent)
chain 1: B1 chain 1
chain 2: MAAPRPPPARLSGVMVPAPIQDLEALRALTALFKEQRNRETAPRTIFQRVLDILKKSSHAVELACRDPSQVENLASSLQLITECFRCLRNACIECSVNQNSIRNLDTIGVAVDLILLFRELRVEQESLLTAFRCGLQFLGNIASRNEDSQSIVWVHAFPELFLSCLNHPDKKIVAYSSMILFTSLNHERMKELEENLNIAIDVIDAYQKHPESEWPFLIITDLFLKSPELVQAMFPKLNNQERVTLLDLMIAKITSDEPLTKDDIPVFLRHAELIASTFVDQCKTVLKLASEEPPDDEEALATIRLLDVLCEMTVNTELLGYLQVFPGLLERVIDLLRVIHVAGKETTNIFSNCGCVRAEGDISNVANGFKSHLIRLIGNLCYKNKDNQDKVNELDGIPLILDNCNISDSNPFLTQWVIYAIRNLTEDNSQNQDLIAKMEEQGLADASLLKKVGFEVEKKGEKLILKSTRDTPKP

Variants of: B1
Assay: Flag antibody-bead pull-down, on-bead digestion, LC-MS/MS label-free quantification
Conditions: with TUBB4A [human (endogenous in MDA-MB-231)]; lysates of MDA-MB-231 cells; triplicate pull-downs; read off a plot

Variant	screen value
chain 1 MSSNVPADMINLRLILVSGKTKEFLFSPNDSASDIAKHVYDNWPMDWEEEQVSSPNILRLIYQGRFLHGNVTLGALKLPFGKTTVMHLVARETLPEPNSQGQRNREKTGESNAAVIL	3.2 log2

Variants of: B2
Assay: as above
Conditions: with ATXN10 [human (endogenous in MDA-MB-231)]; lysates of MDA-MB-231 cells; triplicate pull-downs; read off a plot

Variant	screen value
chain 1 MSSNVPADMINLRLILVSGKTKEFLFSPNDSASDIAKHVYDNWPMDWEEEQVSSPNILRLIYQGRFLHGNVTLGALKLPFGKTTVMHLVARETLPEPNSQGQRNREKTGESNAAVIL	5.1 log2
